The results in this text go back to US20170314054A1 (ROCHE SEQUENCING SOLUTIONS, published 2017).

The target in data set [1] is T1, microbial transglutaminase from Streptomyces mobaraensis (MTG) (Streptomyces mobaraensis, UniProt P81453 77-407).
T1 sequence (looked up): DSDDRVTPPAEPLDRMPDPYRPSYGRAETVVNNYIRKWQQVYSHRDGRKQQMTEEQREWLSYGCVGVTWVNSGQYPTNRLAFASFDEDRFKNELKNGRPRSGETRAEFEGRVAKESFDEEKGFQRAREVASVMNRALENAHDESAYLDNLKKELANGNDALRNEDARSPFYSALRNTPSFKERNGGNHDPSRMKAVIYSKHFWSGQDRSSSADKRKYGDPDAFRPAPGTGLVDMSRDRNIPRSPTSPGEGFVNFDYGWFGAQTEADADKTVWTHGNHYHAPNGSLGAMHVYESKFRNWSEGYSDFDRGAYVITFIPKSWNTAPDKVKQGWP
As to the kind of experiment: cell-based or functional assay.

Data set [2] has as its target T2, Z-GGGARSKLGGGG (SEQ ID NO: 80).
T2 chain: GGGARSKLGGGG

The target in data set [3] is T3, Z-GGGDYALQGGGG (SEQ ID NO: 86).
T3 chain: GGGDYALQGGGG

For data set [4], the target named is T4, Z-GGGDEKPDGGGG (SEQ ID NO: 81).
T4 chain: GGGDEKPDGGGG

No end group written: not given here.

On to QRTKL (also: flanked by G:S (3:1) linkers on peptide array) [QRTKL (SEQ ID NO: 77)], for which, in data set [1], the “A (array MTG labeling signal with Z-Gln-Gly-CAD-biotin)” value came out at 13.3.

B1: microbial transglutaminase from Streptomyces mobaraensis (MTG) (protein)
chain: T1 sequence (looked up)
Take B1: in data set [2], the KM (GLDH-coupled MTG activity assay, 100 µM Z-GGGDYALQGGGG as amine acceptor) came to 66.8 µM; the Vmax (GLDH-coupled MTG activity assay, 100 µM Z-GGGDYALQGGGG as amine acceptor) came to 5.1 pmol/s; the “difference in MTG catalytic efficiency against GGGDEKPDGGGG (SEQ ID NO: 81)” value is “an apparent difference in MTG catalytic efficiency of at least 10-fold was observed”; the kcat (GLDH-coupled MTG activity assay, 100 µM Z-GGGDYALQGGGG as amine acceptor) came to 0.066 s⁻¹. For the same molecule, the kcat/KM (GLDH-coupled MTG activity assay, 100 µM Z-GGGDYALQGGGG as amine acceptor) in data set [2] came to 990 M⁻¹ s⁻¹. Further, in data set [3], the KM (GLDH-coupled MTG activity assay) was 970 µM, the Vmax (GLDH-coupled MTG activity assay) came out at 0.46 nmol/s, the “difference in MTG catalytic efficiency against standard QG-substrate” value is on record as “a difference in MTG catalytic efficiency of at least 3-fold” and the kcat (GLDH-coupled MTG activity assay) was 6 s⁻¹. In addition, the kcat/KM (GLDH-coupled MTG activity assay) in data set [3] came to 6200 M⁻¹ s⁻¹. In addition, in data set [4], the “stated: almost no MTG turnover (rate of NADH oxidation, GLDH-coupled assay, 100 uM Z-GGGDYALQGGGG as amine acceptor)” value was “filled circles: rate stays at about 0 pmol/s from 0 to 200 uM and reaches only about 0.2 pmol/s at 500 uM”.

On to GYKLK (also: flanked by G:S (3:1) linkers on peptide array) [GYKLK (SEQ ID NO: 78)], for which the “A (array MTG labeling signal with Z-Gln-Gly-CAD-biotin)” value in data set [1] came to 13.3.

As to KTKYK (also: flanked by G:S (3:1) linkers on peptide array) [KTKYK (SEQ ID NO: 74)], the “A (array MTG labeling signal with Z-Gln-Gly-CAD-biotin)” value in data set [1] was determined as 13.3.

For the molecule NRTKL (also: flanked by G:S (3:1) linkers on peptide array) [NRTKL (SEQ ID NO: 76)], the “A (array MTG labeling signal with Z-Gln-Gly-CAD-biotin)” value in data set [1] came to 13.3.

Take LSKLK (also: flanked by G:S (3:1) linkers on peptide array) [LSKLK (SEQ ID NO: 75)]: the “A (array MTG labeling signal with Z-Gln-Gly-CAD-biotin)” value in data set [1] is 13.3.
